According to article PMC5454392, “Selective BET bromodomain inhibition as an antifungal therapeutic strategy” (Nature Communications, 2017):
Square brackets hold non-standard residues; d marks the D form. Ends that are not written are not given here. Arg(Me2a) = CN(C)C(=N)NCCC[C@H](N)C(=O)O; Lys(Me3) = C[N+](C)(C)CCCC[C@H](N)C(=O)O; Arg(Me2s) = CN=C(NC)NCCC[C@H](N)C(=O)O; pT = C[C@@H](OP(=O)(O)O)[C@H](N)C(=O)O; Lys(Me2) = CN(C)CCCC[C@H](N)C(=O)O; pS = N[C@@H](COP(=O)(O)O)C(=O)O; Lys(Me) = CNCCCC[C@H](N)C(=O)O; Me2a = not defined here

T1: CaBdf1 BD2 (GST-tagged, wild-type) (Candida albicans (strain SC5314 / ATCC …, UniProt Q5A4W8))
T1 chain: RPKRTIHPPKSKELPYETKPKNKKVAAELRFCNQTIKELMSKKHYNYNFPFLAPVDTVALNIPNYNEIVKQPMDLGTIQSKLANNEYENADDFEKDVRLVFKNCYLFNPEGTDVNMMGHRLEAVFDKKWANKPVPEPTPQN

T2: CaBdf1 BD1 (GST-tagged, wild-type) (Candida albicans (strain SC5314 / ATCC …, UniProt Q5A4W8))
T2 chain: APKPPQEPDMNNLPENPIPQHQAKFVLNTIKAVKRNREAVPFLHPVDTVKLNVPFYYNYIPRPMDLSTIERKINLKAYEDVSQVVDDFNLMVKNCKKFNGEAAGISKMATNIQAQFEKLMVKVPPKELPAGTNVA


What was measured:
[1] = target: T1, CaBdf1 BD2 (GST-tagged, wild-type); test: histone peptide array (Active Motif MODified), 1 uM GST-tagged bromodomain, anti-GST detection, normalized mean intensity
[2] = target: T2, CaBdf1 BD1 (GST-tagged, wild-type); test: as above

Row | Binder | binding score [1] | binding score [2]
1 | ARTKQTA[Arg(Me2s)]K(Ac)[pS]TGGKAPRKQ | 0.00296 | 0.00363
2 | PRKQLATKAARK(Me3)[pS]APATGG | 0.00074 | 0.0029
3 | A[Arg(Me2s)]TK(Ac)QTARK(Me)STGGKAPRKQ | 0.00333 | 0.00798
4 | PRKQLATKAARKSAPATGG (not fully specified) | 0.00111 | 0.00798
5 | AR(Me2s)TK(Ac)QTARKSTGGKAPRKQ | 0.00074 | 0.00616
6 | SGRGKGGKGLGKGGAKRHR (pS G Rme2a G K G G K G L G K G G A K R H R) | 0.00148 | 0.00471
7 | ARTKQTARKSTGGKAPRKQ (A Rme2s T Kme1 Q T A R Kme3 S T G G K A P R K Q) | 0.00259 | 0.00326
8 | SGRGK(Ac)QGGKARAKAKSRSS | 0.0074 | 0.021
9 | SGRGKGGKGLGKGGAKRHR (S G Rme2s G Kac G G Kac G L G K G G A K R H R) | 0.0322 | 0.0334
10 | A[Arg(Me2a)]T[Lys(Me2)]QTA[Arg(Me2s)][Lys(Me2)]STGGKAPRKQ | 0.00666 | 0.0029
11 | ARTKQTARKSTGGKAPRKQ (A R T K Q T A R Kme2 S T G G K A P R K Q) | 0.00296 | 0.00109
12 | [pS]GRGK(Ac)QGGK(Ac)ARAK(Ac)AKSRSS | 0.00888 | 0.0515
13 | SGRGKGGKGLGKGGAKRHR (S G Rme2a G Kac G G Kac G L G K G G A K R H R) | 0.0411 | 0.0558
14 | RKSAPATGGVKKPHRYRPG (R K S A P A T G G V Kme2 K P H R Y R P G) [H3 26-45] | 0.00555 | 0.0058
15 | AR(Me2a)[pT]K(Me2)QTARKSTGGKAPRKQ (reading uncertain) | 0 | 0.00181
16 | SGRGKQGGKARAK(Ac)AKSRSS | 0.0141 | 0.0943
17 | ARTKQTARKSTGGKAPRKQ (A R T K Q T A R Kac pS T G G K A P R K Q) | 0.00407 | 0.00435
18 | ARTKQTARKSTGGKAPRKQ (A R T Kme3 Q T A Rme2s Kme3 S T G G K A P R K Q) | 0.00407 | 0.00399
19 | ARTKQTARKSTGGKAPRKQ (A R T K Q T A Rme2a Kme2 pS pT G G K A P R K Q) | 0.00555 | 0.00471

Row | Binder | binding score [1] | binding score [2]
20 | ARTKQTARKSTGGKAPRKQ (A R T Kac Q T A Rme2s Kme3 S T G G K A P R K Q) | 0.00407 | 0.00689
21 | PDPAK(Ac)SAPAPKK(Ac)G[pS]KKAVT [H2B 1-19] | 0.00481 | 0.00979
22 | ARTKQTARKSTGGKAPRKQ (A R T K Q T A R K pS pT G G K A P R K Q) | 0.00407 | 0.00326
23 | A[Arg(Me2a)]T[Lys(Me3)]QTA[Arg(Me2s)][Lys(Me2)]STGGKAPRKQ | 0.00592 | 0.00326
24 | PRKQLATKAAR(Me2a)K(Ac)SAPATGG (reading uncertain) | 0.00999 | 0.0189
25 | AR(Me2a)TK(Me)QTAR(Me2s)K(Ac)STGGKAPRKQ (reading uncertain) | 0.0037 | 0.0341
26 | PRKQLATKAA[Arg(Me2a)]K(Me)SAPATGG | 0.00444 | 0.00399
27 | ARTKQTARKSTGGKAPRKQ (A R T K Q T A R Kme1 S T G G K A P R K Q) | 0.00407 | 0.00435
28 | AR[pT]K(Me3)QTARKSTGGKAPRKQ | 0.00296 | 0.00435
29 | A[Arg(Me2a)]T[Lys(Me3)]QTA[Arg(Me2a)][Lys(Me)]STGGKAPRKQ | 0.00851 | 0.00435
30 | AR(Me2a)[pT]K(Ac)QTARKSTGGKAPRKQ (reading uncertain) | 0.00111 | 0.00943
31 | ARTKQTARKSTGGKAPRKQ (A Rme2a T Kac Q T A Rme2a K S T G G K A P R K Q) | 0.00592 | 0.00399
32 | ARTKQTARKSTGGKAPRKQ (A Rme2s T Kme3 Q T A Rme2a Kme1 S T G G K A P R K Q) | 0.00222 | 0.0272
33 | SGRGKGGKGLGKGGAKRHR (pS G Rme2s G K G G K G L G K G G A K R H R) | 0.00333 | 0.00508
34 | ARTKQTA[Arg(Me2a)]K(Me)[pS][pT]GGKAPRKQ | 0.0037 | 0.00471
35 | ARTKQTARKSTGGKAPRKQ (A Rme2s T Kme1 Q T A Rme2s Kme2 S T G G K A P R K Q) | 0.00333 | 0.00254
36 | SGRGKGGKGLGKGGAKRHR (S G R G K G G Kac G L G Kac G G A Kac R H R) | 0.16 | 0.201
37 | PRKQLATKAAR(Me2s)K(Ac)SAPATGG | 0.00814 | 0.0123
38 | PRKQLATKAAR(Me2s)K(Me3)SAPATGG | 0.0037 | 0.00181
